Values joined by “and” are separate entries in the source; they are usually repeats but may differ in a detail not shown here. Equal values may be shown once.
Experiments:
[1] = target: Insulin-degrading enzyme wild type (rat); assay: SEC with static light scattering (SLS); 200 μg injected into a Superdex G-200 column, working buffer, 0.5 ml/min; 90° light scattering with UV or refractive index; calibrated with BSA
[2] = target: Proteolytically inactive recombinant insulin-degrading enzyme with Glu111 replaced by Gln (rat); assay: as above

stoichiometry N [1]	stoichiometry N [2]	Substance
4 and 2	–	Insulin-degrading enzyme wild type
–	2 and 4	Proteolytically inactive recombinant insulin-degrading enzyme with Glu111 replaced by Gln

Source: publication PMC3623905
